{
  "source": "the nanobody polyreactivity screen of Harvey et al. (2022)",
  "data": [
    {"assay": "yeast display, Sf9 membrane polyspecificity reagent, FACS + sequencing; frameworks hold sequencing errors", "how_it_was_run": "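Genes from sorted yeast were amplified by colony PCR, read by MiSeq 2 × 250 sequencing and filtered on CDR length. These cells carried a synthetic nanobody library in Saccharomyces cerevisiae BJ5465 and were sorted by FACS into low and high (top ~1%) gates on anti-HA and streptavidin fluorescence. Polyreactivity is labelled according to the gate of origin.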", "values": [
      {"sequence": "QVQLVESGGGLVQAGGSLRLSCASSGSIFFEYAMVWYRQAPGKERELDASINRGGGSTYYADSVKGRFTISRDNAKNTVYLQMNSLKPEDTAVYYCAAQWKYRQSYLDYYWGQGTQVTVSS", "polyreactivity (PSR sort gate)": "low polyreactivity"},
      {"sequence": "QVQLVESGGGLVQAGGSLRLSCASSGSIFFLYAMGWYRQAPGKERELVAAITGSGSRTYYADSVKGRFTISRDNEKNTVYLHMNSLKPEYTAVYYCAARYYGAYGKQPRARYGYWGKGTQVTVSS", "polyreactivity (PSR sort gate)": "high polyreactivity"},
      {"sequence": "QVQLVESGGGLVQAGGSLRLSCASSGSIFGAYAMGWYRQAPGKERELVAAITSVGSTYYADSVKGRFTISRDNAKNTVYVQMNSLIPEDTAVYYCAKRQWRPTYRYGYWGQGTQVTVSS", "polyreactivity (PSR sort gate)": "low polyreactivity"},
      {"sequence": "QVQLVESGGGLVQAGGSLRLSCASSGSIFGGYAMGWYRQAPGKERELVAAITSSGGLTYYADSVKGRFTISRDNAKNTVYLQMNCLKPEDTAVYYCAAVTVAGYDYWGQGTQVTVSS", "polyreactivity (PSR sort gate)": "high polyreactivity"},
      {"sequence": "QVQLVESGGGLVQAGGSLRLSCASSGSIFLINAMGWYRQAPGKERELVAAISRSGGRTYYADSVKGRFTISRDNAKNTVYLQMNSLKPEDTAVYYCAVPSIYYAGRAYDYWGQGTQVTVSS", "polyreactivity (PSR sort gate)": "high polyreactivity"},
      {"sequence": "QVQLVESGGGLVQAGGSLRLSCASSGSIFPRYAMGSYRPAPGKERELVAAISQSGGRTYYADSVKGRFTISRDNAKNTVYLQMNSMKPEDTAVYYCAALVSGEYDYWGQGTQVTVSS", "polyreactivity (PSR sort gate)": "high polyreactivity"},
      {"sequence": "QVQLVESGGGLVQAGGSLRLSCASSGSIFSTYAMGWYRQAPGKEMELVATIRRGGSTYYADSVKGPFTISRDNAKNTVYLQMNSLKPEDTELYYCAAAGGRFIRYGYWGQGTQVTVSS", "polyreactivity (PSR sort gate)": "high polyreactivity"},
      {"sequence": "QVQLVESGGGLVQAGGSLRLSCASSGSIFSYNAMGWYRQAPGKERELVAAITRSGGSTYYADSVKGRFTISRDNAKNTVYLQMNSLKPEDTAVYYCAVYLPYSQRYVHYYYWGQGTQVTVSS", "polyreactivity (PSR sort gate)": "high polyreactivity"},
      {"sequence": "QVQLVESGGGLVQAGGSLRLSCASSGSIFVHNDMGWYRQAPGKERELVARINTGGGTNYADSVKGRFTISRDNSKNTVYLQMNRLKPEDRAVYYCAAVLFVFYDEYGYWEYFSQYDYWGQGTKVTVSS", "polyreactivity (PSR sort gate)": "low polyreactivity"},
      {"sequence": "QVQLVESGGGLVQAGGSLRLSCASSGSILTSYAMGWYRQAPRKERELVASIDWSAGTTYYADSVKGRFTISRDNAKNTVYLQMNSLKPEDTAVYYCGKLEFLSGYPYRPEYGSWGQGTQVTVSS", "polyreactivity (PSR sort gate)": "low polyreactivity"},
      {"sequence": "QVQLVESGGGLVQAGGSLRLSCASSGSNVYIYAMGWYRQAPGKERELVAAISSAGSTYYADSVKGRFTISRDNAKNTVYLQMNSLKPEDTAVYYCAARAQYPGWRYNYWGQGTQVTVSS", "polyreactivity (PSR sort gate)": "high polyreactivity"},
      {"sequence": "QVQLVESGGGLVQAGGSLRLSCASSGSTFHDYAMGWYRQAPGKERELVAAISNSGGSTYYADSVKGRFTISRDNAKNTVYLQMNSLKPEDTAVYYCAADGRWYWDYEYWGQGTQVTVSS", "polyreactivity (PSR sort gate)": "low polyreactivity"},
      {"sequence": "QVQLVESGGGLVQAGGSLRLSCASSGSTFLRNAMGWYRHAPRKERELVAAFSLGSGSTYYADSVKGRFTISRDNAKNTVYLQMNSLKPEDTAVYYCAADVSRWLDYGYDYWGQGTQVTVSS", "polyreactivity (PSR sort gate)": "low polyreactivity"},
      {"sequence": "QVQLVESGGGLVQAGGSLRLSCASSGSTFPPYAMGWYRQAPGKERELVAAISYRDTGTYYADSVKGRFTISRDNAKNTVYFQMNSLKPEDTAVYYCAADYHIVYYFLYYYWGQGTQVTVSS", "polyreactivity (PSR sort gate)": "low polyreactivity"},
      {"sequence": "QVQLVESGGGLVQAGGSLRLSCASSGSTFPSNAMGWYRQAPGKERELVAAISRSGGSTYYADSVKGRFTISRDNAKNTVYLQMNSLKPEDTAVYYCAVQVRPNYGGTRIHRGGYDYWGQGTQVTVSS", "polyreactivity (PSR sort gate)": "low polyreactivity"},
      {"sequence": "QVQLVESGGGLVQAGGSLRLSCASSGSTFPVYAMGWYRQPPGKDRELVAAITSGGSTYYADSVKGRFTISRDNEKNTVSLQMNIRKPEDTAVYYCNADGYLSYAFDYWGQGTQVTVSS", "polyreactivity (PSR sort gate)": "low polyreactivity"},
      {"sequence": "QVQLVESGGGLVQAGGSLRLSCASSGSTFVTYAMGWYRQAPGKERELVAAITEDGASTYYADSVKGRFTISRDNAKNTVYLQMNSLKPEDTAVYYCAADPTYWPVWYVLYDYWGQGTQVTVSS", "polyreactivity (PSR sort gate)": "low polyreactivity"},
      {"sequence": "QVQLVESGGGLVQAGGSLRLSCASSGSTFYFNAMGWSRQAPGKERELVAGNSSGGSTYYADSVKGRFTISRDNAKNTVYLQMNSLKPEDTAVYYCAADSDTFYYTGYDYDYWGQGTQVTVSS", "polyreactivity (PSR sort gate)": "low polyreactivity"},
      {"sequence": "QVQLVESGGGLVQAGGSLRLSCASSGSTFYHYAMVWYRQAPGKERELVAAISWSGGSTYYADSVKGRFTISRDNAKNTVYLQMNSLKPEDTAVYYCAARGRARQRTSFEYWGQGTQVTVSS", "polyreactivity (PSR sort gate)": "high polyreactivity"},
      {"sequence": "QVQLVESGGGLVQAGGSLRLSCASSGSTFYNNAMGWYRPAPGKDRELVAAISSGGGTYYADSVKGRFTISRDNAKNTVYLQMNSLKPEDTAVYYCAADFANTTHWGRIKRYDYWGQGTQVTVSS", "polyreactivity (PSR sort gate)": "low polyreactivity"},
      {"sequence": "QVQLVESGGGLVQAGGSLRLSCASSGSTFYTNAMGWYRQAPGKESEFVDAISWSGSSTYADSVKGRFTISRDNAKITVYLQMNSLKPEDTAVYYCAKATSSLYHYRYDYWGQGTQVTVSS", "polyreactivity (PSR sort gate)": "low polyreactivity"},
      {"sequence": "QVQLVESGGGLVQAGGSLRLSCASSGSTWWYAMGWYRQAPGKEMELVATISYSGGSTYYADSVKGRFTISRDNAKNSVYLQMNSLKPEDTAVYYCAAKKWTAVRRDFWGQGTQVTVSS", "polyreactivity (PSR sort gate)": "high polyreactivity"},
      {"sequence": "QVQLVESGGGLVQAGGSLRLSCASSGYTFYAYAMGWYRQAPGKERELVAAISGSGGNTRYADSVKGRFTISRDNAKNTVYLQMNILKPEDTAVYYCAKRIIRSPFGAYGYWGQGTQVTVSS", "polyreactivity (PSR sort gate)": "high polyreactivity"},
      {"sequence": "QVQLVESGGGLVQAGGSLRLSCATSGRTFWFYAMGWYRQAPGKERELVAAISSGGSTNYADSVKGRFTISRDNAKNTVYLQMNSLKPEVTAVYYCAKVGNIPYGTRYYSNRYDYWGQGTQVTVSS", "polyreactivity (PSR sort gate)": "low polyreactivity"},
      {"sequence": "QVQLVESGGGLVQAGGSLRLSCAVSGFNFPYYAMGWYRQAPGKERELVAAINQRGGSTYYADSVKGRFTISRDNAKNTVYLQMNSLKPEDTAVYYCAADRHSKTYYYSYGYWGQGTQVTVSS", "polyreactivity (PSR sort gate)": "high polyreactivity"},
      {"sequence": "QVQLVESGGGLVQAGGSLRLSCDASGFIFWWYAMGWYRQAPGKEREFVAYISWSGARTYYADSVKGRFTISRDNAKNTVYLLMNSLKQEDTAVYYCNADRIGRYYQSYGGGHMDYWGQGTQVNVSS", "polyreactivity (PSR sort gate)": "high polyreactivity"},
      {"sequence": "QVQLVESGGGLVQAGGSLRLSCDASGFIFYYNAMGWYRQAPGKESELVAGISWDGSTYYADSVKGRFTISRDNAKNTVYLQMNSLKPEETAVYYCAAALLDDYFDLFIFGYWGQGTQVTVSS", "polyreactivity (PSR sort gate)": "low polyreactivity"},
      {"sequence": "QVQLVESGGGLVQAGGSLRLSCDASGFTFTRNAMGWYRQAPGKERELVDAISKRGGTTYYADSVKGRFTISRDYAKNTVYLQMNTLKPEDTSVYYCAKDGGITGGYWGQGTQVTVSS", "polyreactivity (PSR sort gate)": "high polyreactivity"},
      {"sequence": "QVQLVESGGGLVQAGGSLRLSCDASGGTFPYYAMGWYRQATGKERELVPDISGTDGSTYYADSVKGRFTISRDNANYTVYLQMNSLKPEDTAVYYCNADPHWWYWDYDYWGQGTQVTVSS", "polyreactivity (PSR sort gate)": "high polyreactivity"},
      {"sequence": "QVQLVESGGGLVQAGGSLRLSCDASGITFLNYAMGWYRQAPGKERELVAAIDTRGGRTNYADSVKGRFTISRDNAKNTVYLQMNSLKPEDTAVYYCAADPFYWYRSVRGEYWGQGTQVTVSS", "polyreactivity (PSR sort gate)": "low polyreactivity"},
      {"sequence": "QVQLVESGGGLVQAGGSLRLSCDASGITFYSYAMGWYRQAPGKEREFVAAITRGGGITSYADSVKGRFTISRDNAKNTVYLQMNSLKPEDTAVYYCAVYTYHYGRSTYYKYDYWGQGTQVTVSS", "polyreactivity (PSR sort gate)": "high polyreactivity"},
      {"sequence": "QVQLVESGGGLVQAGGSLRLSCDASGITVAGYAMGWYRHAPGKEWELVAAISRGGSTYYADSVKGRFTISRDNAKNTVYLQMNSLKPEDTAVYYCNTDDQQGYFTYTGWNYNYWGQGTQVSVSS", "polyreactivity (PSR sort gate)": "high polyreactivity"},
      {"sequence": "QVQLVESGGGLVQAGGSLRLSCDASGLIFSWYAMGWYRQPPGKERELVAAISKGGGSTYYADSVKGRFTISRDNAKITVYLQMNSLKPEDTAVYYCAAASSYGYGYWGQGTQVTVSS", "polyreactivity (PSR sort gate)": "high polyreactivity"},
      {"sequence": "QVQLVESGGGLVQAGGSLRLSCDASGLNMYKNGMGWYRQAPGKERELVAVISRSGCRTYYADSVKGRFTISRDTAKNTVYVQMNSLKPEDTAVYYCAARQYGPRYTYYYWGQGTQVTVSS", "polyreactivity (PSR sort gate)": "high polyreactivity"},
      {"sequence": "QVQLVESGGGLVQAGGSLRLSCDASGLTFAYYAMGWYRQEPGKERELVADISWNGGRTYYSDSVKGRFTISGYNAKNTVYLQMNSLKPEDSAVYYCAAQVTSSFYWGQGTQVTVSS", "polyreactivity (PSR sort gate)": "high polyreactivity"},
      {"sequence": "QVQLVESGGGLVQAGGSLRLSCDASGLTFTRNAMGWYRPAPGKERELVAAITSTGSTNYADSVKGRFTISRDNAKNTVYLQMNSLKPEDTAVYYCNARNAYYDDNYWGQGTQVTVSS", "polyreactivity (PSR sort gate)": "low polyreactivity"},
      {"sequence": "QVQLVESGGGLVQAGGSLRLSCDASGNTFLWYAMGWYRQAPGKERELVAAITYSGGSTYYADSVKGRFTISRDNAKITVYLQMNSLKPEDTARYYCNADYFGYDYVEYGYWGQGTQVTVSS", "polyreactivity (PSR sort gate)": "low polyreactivity"},
      {"sequence": "QVQLVESGGGLVQAGGSLRLSCDASGPIFAWNGMGWYRPAPGKERELVAVITSGGNTNYADSVKGRFTFSLDNAKNTVFIQMNSLKPEDTAVYDCATKGYAKRTRFWSHYDYWGQGTQVNVSS", "polyreactivity (PSR sort gate)": "high polyreactivity"},
      {"sequence": "QVQLVESGGGLVQAGGSLRLSCDASGRICGTNAMGWYRQAPGKERELVADITSGGSTNYADSVKGRFTISRDYAKNTVYVQMNSLKPEDTAVYYCAADVIGDLRWYRDEYWGQGTQVTVSS", "polyreactivity (PSR sort gate)": "low polyreactivity"},
      {"sequence": "QVQLVESGGGLVQAGGSLRLSCDASGRIFDANVMGWYRQAPGKERELVAAISSGGRTKYADSVKGRFTISRDNAKNTVYLQMNSLKPEDTAVYYCNADYRNDWGTPLWYAYNYWGQGTQVTVSS", "polyreactivity (PSR sort gate)": "low polyreactivity"}
    ]}
  ]
}
